Assay results as given in the supplement of paper PMC10201428.
± gives the standard deviation of the averaged measurements.

How the values were obtained:
[1] = system: VchCAST RNA-guided transposition machinery (E. coli BL21(DE3) host, lacZ target); assay: relative integration efficiency (T-LR orientation) vs wild-type transposon end (log2 (normalized fold change)); transposon end mutated: right end (5 bp flank + 75 bp right end); higher = more efficient transposition
Outline: (§1)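 Relative integration efficiency is a fold change of output over input barcode abundance, normalised to reference barcodes and log-transformed. Input plasmids and genomic integration junctions were PCR-amplified and Illumina-sequenced from E. coli BL21(DE3) co-transformed with a T7-driven effector plasmid and pUC57 donor pools of 1549 left-end or 1849 right-end transposon variants. Plating was done with 0.1 mM IPTG at 37°C for 18 h, with two biological output replicates and four reference barcodes.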

[2] = system: VchCAST RNA-guided transposition machinery (E. coli BL21(DE3) host, lacZ target); assay: relative integration efficiency (T-RL orientation) vs wild-type transposon end (log2 (normalized fold change)); transposon end mutated: right end (5 bp flank + 75 bp right end); higher = more efficient transposition
Outline: as §1

## ACATTTGTGGATACAACCCTAAAATGATAATTACACCCATAAATTGATCATTATCACCCCCAATTTAACTATAACGCTCTGATCATAGTCAGACCAACATTGCTACGACCCGTATTCGCACCGACAC
[1]
  relative integration efficiency (log2): 0.316 ± 0.5
[2]
  relative integration efficiency (log2): -2.87 ± 0.27

## ACATTTGTTGATACAACCATAAAATGATAATTACACCCATAAATTGATAATTAAAACACCCATAAATTGATATTGCCTCTGATCATAGTCAGACCAACATTGCTACGACCCGTATTCGCACCGACAC
[1]
  relative integration efficiency (log2): 0.089 ± 0.23
[2]
  relative integration efficiency (log2): -0.399 ± 0.27

## ACATTTGTTGATACAACCATAAAATGATAATTAATAATTATTTATAATCAGCAACCACCCATAAATTGATAATTATCACACCCATAAATTGATATTGCCTCTGATCATAGTCAGACCAACATTGCTA
[1]
  relative integration efficiency (log2): -1.81 ± 0.066
[2]
  relative integration efficiency (log2): -3.26 ± 0.25

## ACATTTGTTGATACAACCATAAGTTGATATTTTCAACCATAAAGTGATATTTATCACAACCATAAGTTGATATTTTCTCTGATCATAGTCAGACCAACATTGCTACGACCCGTATTCGCACCGACAC
[1]
  relative integration efficiency (log2): -0.246 ± 0.14
[2]
  relative integration efficiency (log2): 0.119 ± 0.067

## ACATTTGTCGATACAACCCTAAAATGATAATTACACCCATAAATGGATAATTATCACACCCAATTTAACTATAACGCTCTGATCATAGTCAGACCAACATTGCTACGACCCGTATTCGCACCGACAC
[1]
  relative integration efficiency (log2): -0.544 ± 0.14
[2]
  relative integration efficiency (log2): -3.17 ± 0.19

## ACATTTGTTGATATGTTGATACAACCATAAAATGATAATTACACCCATAAATTGATAATTATCACACCCATAAATTGATATTGCCTCTGATCATAGTCAGACCAACATTGCTACGACCCGTATTCGC
[1]
  relative integration efficiency (log2): 0.26 ± 0.15
[2]
  relative integration efficiency (log2): -0.0755 ± 0.058

## ACATTTGTTGATACAACCATAAAATCATCATTACCCCCATCAATTGATAATTATCCCACCCAATTTAACTATAACGCTCTGATCATAGTCAGACCAACATTGCTACGACCCGTATTCGCACCGACAC
[1]
  relative integration efficiency (log2): -1.26 ± 0.14
[2]
  relative integration efficiency (log2): -5.47 ± 0.095

## ACATTTGTTCATACAACCCTAAAATGATAATTACACCCATAAATGGATAATTATCACACCCAATTTAACTATAACGCTCTGATCATAGTCAGACCAACATTGCTACGACCCGTATTCGCACCGACAC
[1]
  relative integration efficiency (log2): -2.78 ± 0.54
[2]
  relative integration efficiency (log2): -3.9 ± 0.37

## ACATTTGTTGATACAACCATTAAATGATAATTCCACCCATACATTGATAATTATCACACCCAATTTAACTATAACGCTCTGATCATAGTCAGACCAACATTGCTACGACCCGTATTCGCACCGACAC
[1]
  relative integration efficiency (log2): 0.395 ± 0.29
[2]
  relative integration efficiency (log2): -2.63 ± 0.34

## ACATTTGTTGATACAACCATAAGTTGATATTTTCAACCATAAGTTGATATTTTTCACAACCATAAAGTGATATTTACTCTGATCATAGTCAGACCAACATTGCTACGACCCGTATTCGCACCGACAC
[1]
  relative integration efficiency (log2): -0.145 ± 0.024
[2]
  relative integration efficiency (log2): 0.196 ± 0.011

## ACATTTGTTGATACAACCATAAAAGGATCATTACACCCATCAATTGATAATTATCACACCCCATTTAACTATAACGCTCTGATCATAGTCAGACCAACATTGCTACGACCCGTATTCGCACCGACAC
[1]
  relative integration efficiency (log2): 0.228 ± 0.13
[2]
  relative integration efficiency (log2): -3.25 ± 0.32

## ACATTTGTTGATACAACCATAAAATGATAATTACACCCATAAATTGATAATTATCACACCCATAAATTGATATTGCGACTGATCATAGTCAGACCAACATTGCTACGACCCGTATTCGCACCGACAC
[1]
  relative integration efficiency (log2): -0.0636 ± 0.17
[2]
  relative integration efficiency (log2): -0.0819 ± 0.0067

## ACATTTGTTGATACAACCATAAAATGATAATTACACCGTATAATTGATAATTATCACACCCATAAATTGATATTGCCTCTGATCATAGTCAGACCAACATTGCTACGACCCGTATTCGCACCGACAC
[1]
  relative integration efficiency (log2): -1.63 ± 0.12
[2]
  relative integration efficiency (log2): -1.74 ± 0.11

## ACATTTGTTGATACAACCATAAAATGATAATTAATAATTATTTATAATCAGCAACTTAACCACCCATAAATTGATAATTATCAACAAACGCCCGGTCGCGGTACTCTGATCATAGTCAGACCAACAT
[1]
  relative integration efficiency (log2): 0.501 ± 0.39
[2]
  relative integration efficiency (log2): -3.11 ± 0.29

## ACATTTGTTGATACAACCATAAAGTGATATTTACAACCATAAAGTGATATTTATCACAACCATAAAGTGATATTTACTCTGATCATAGTCAGACCAACATTGCTACGACCCGTATTCGCACCGACAC
[1]
  relative integration efficiency (log2): 0.061 ± 0.087
[2]
  relative integration efficiency (log2): 0.0208 ± 0.11

## ACATTGGTCGATACAACCATAAAATGATAATTACACCCATAAATTCATCATTATCACACCCAATTTAACTATAACGCTCTGATCATAGTCAGACCAACATTGCTACGACCCGTATTCGCACCGACAC
[1]
  relative integration efficiency (log2): -5.19 ± 1.2
[2]
  relative integration efficiency (log2): -7.035 ± 0.062

## ACATTTGTTGATACAACCATAAAATGATAATTACAACCATAAAATGATAATTATCACACCCATAAATTGATATTGCCTCTGATCATAGTCAGACCAACATTGCTACGACCCGTATTCGCACCGACAC
[1]
  relative integration efficiency (log2): -0.38 ± 0.42
[2]
  relative integration efficiency (log2): -0.0716 ± 0.12
